Test results from paper PMC5161705.

Legend:
[1] = biological target: biotin-labeled MBP (E. coli) [MBP: P0AEX9]; test: BLI
[2] = biological target: MBP^V8G/Y283D (E. coli) [MBP: P0AEX9]; test: ITC

Chain of SecB (P0AG86 whole entry): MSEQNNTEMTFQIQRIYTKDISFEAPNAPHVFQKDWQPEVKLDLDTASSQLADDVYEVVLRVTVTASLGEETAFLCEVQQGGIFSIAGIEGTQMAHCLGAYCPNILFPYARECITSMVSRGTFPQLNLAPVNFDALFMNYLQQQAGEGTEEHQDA
Chain of Trigger Factor (TF) (P0A850 whole entry): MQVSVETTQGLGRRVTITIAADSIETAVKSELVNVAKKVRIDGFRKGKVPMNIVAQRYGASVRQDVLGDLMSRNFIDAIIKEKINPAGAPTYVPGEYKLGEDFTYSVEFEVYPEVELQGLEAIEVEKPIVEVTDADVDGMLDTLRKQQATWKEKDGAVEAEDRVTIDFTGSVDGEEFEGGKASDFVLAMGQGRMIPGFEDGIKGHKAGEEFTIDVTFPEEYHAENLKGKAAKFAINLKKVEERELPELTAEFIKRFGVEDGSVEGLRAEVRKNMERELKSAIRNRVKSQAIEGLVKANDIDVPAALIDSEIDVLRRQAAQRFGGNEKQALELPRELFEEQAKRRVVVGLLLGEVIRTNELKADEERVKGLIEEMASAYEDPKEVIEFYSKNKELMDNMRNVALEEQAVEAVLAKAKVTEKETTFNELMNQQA

Substance	koff [1] [s⁻¹]	Kd [2] [mM]
Trigger Factor (TF) (from UniProt P0A850 1-432) (natural protein)	0.05	–
SecB (from UniProt P0AG86 1-155) (natural protein)	0.01	50
